# Assay results: patent US20110154538A1 (UNITED STATES OF AMERICA AS REPRESENTED BY THE SECRETARY OF …, published 2011)
# T1: Gal4 activation domain (AD) negative control (UniProt P04386 768-881)
# T1 sequence: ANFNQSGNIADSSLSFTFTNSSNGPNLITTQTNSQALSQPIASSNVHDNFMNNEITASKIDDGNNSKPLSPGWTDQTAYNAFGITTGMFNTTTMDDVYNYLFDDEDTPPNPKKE
# B1: AltMV-Po coat protein (other)
# chain: MSTPFPQVTQEQIDAFTPHTTSNLLPSPEQLTTIASLLVAAKVPAASTTTIALELVNFCYDNGSSAYTVVVGPSSISGVSLSQVANIVKASGTSLRKFCRFFAPIIWNLRTDKTPPANWEANGFKPTEKFAAFDFFDGVENPAAMQPPGGLVRAPSQAERIANATNKQVNLFQAAAQDNNFASNSAFITKGQLSSNSPTIQYLPPPE
# notes: also called AltMV-Po CP; CP-Po
# Molecular target: T1, Gal4 activation domain (AD) negative …
# Test: yeast two-hybrid, growth on selective medium
binder,measurement,value
B1,binding result,no binding
